The values below come from PMC5260909.

Test [1] has as its target Endogenous NMDAR (GluN1 subunit) of mouse cortical neurons and mouse brain (mouse (endogenous in cortical neurons of Swiss mice)) (UniProt P35438).
For test [2], the target named is NMDAR of rat GluN1-1b WT with WT GluN2A, on transfected HEK-293 cells (rat) (UniProt Q00959).
Test [3] has the same target. The source holds these as a separate data set.

Sequence of UniProt Q00959 (Q00959 whole entry, looked up): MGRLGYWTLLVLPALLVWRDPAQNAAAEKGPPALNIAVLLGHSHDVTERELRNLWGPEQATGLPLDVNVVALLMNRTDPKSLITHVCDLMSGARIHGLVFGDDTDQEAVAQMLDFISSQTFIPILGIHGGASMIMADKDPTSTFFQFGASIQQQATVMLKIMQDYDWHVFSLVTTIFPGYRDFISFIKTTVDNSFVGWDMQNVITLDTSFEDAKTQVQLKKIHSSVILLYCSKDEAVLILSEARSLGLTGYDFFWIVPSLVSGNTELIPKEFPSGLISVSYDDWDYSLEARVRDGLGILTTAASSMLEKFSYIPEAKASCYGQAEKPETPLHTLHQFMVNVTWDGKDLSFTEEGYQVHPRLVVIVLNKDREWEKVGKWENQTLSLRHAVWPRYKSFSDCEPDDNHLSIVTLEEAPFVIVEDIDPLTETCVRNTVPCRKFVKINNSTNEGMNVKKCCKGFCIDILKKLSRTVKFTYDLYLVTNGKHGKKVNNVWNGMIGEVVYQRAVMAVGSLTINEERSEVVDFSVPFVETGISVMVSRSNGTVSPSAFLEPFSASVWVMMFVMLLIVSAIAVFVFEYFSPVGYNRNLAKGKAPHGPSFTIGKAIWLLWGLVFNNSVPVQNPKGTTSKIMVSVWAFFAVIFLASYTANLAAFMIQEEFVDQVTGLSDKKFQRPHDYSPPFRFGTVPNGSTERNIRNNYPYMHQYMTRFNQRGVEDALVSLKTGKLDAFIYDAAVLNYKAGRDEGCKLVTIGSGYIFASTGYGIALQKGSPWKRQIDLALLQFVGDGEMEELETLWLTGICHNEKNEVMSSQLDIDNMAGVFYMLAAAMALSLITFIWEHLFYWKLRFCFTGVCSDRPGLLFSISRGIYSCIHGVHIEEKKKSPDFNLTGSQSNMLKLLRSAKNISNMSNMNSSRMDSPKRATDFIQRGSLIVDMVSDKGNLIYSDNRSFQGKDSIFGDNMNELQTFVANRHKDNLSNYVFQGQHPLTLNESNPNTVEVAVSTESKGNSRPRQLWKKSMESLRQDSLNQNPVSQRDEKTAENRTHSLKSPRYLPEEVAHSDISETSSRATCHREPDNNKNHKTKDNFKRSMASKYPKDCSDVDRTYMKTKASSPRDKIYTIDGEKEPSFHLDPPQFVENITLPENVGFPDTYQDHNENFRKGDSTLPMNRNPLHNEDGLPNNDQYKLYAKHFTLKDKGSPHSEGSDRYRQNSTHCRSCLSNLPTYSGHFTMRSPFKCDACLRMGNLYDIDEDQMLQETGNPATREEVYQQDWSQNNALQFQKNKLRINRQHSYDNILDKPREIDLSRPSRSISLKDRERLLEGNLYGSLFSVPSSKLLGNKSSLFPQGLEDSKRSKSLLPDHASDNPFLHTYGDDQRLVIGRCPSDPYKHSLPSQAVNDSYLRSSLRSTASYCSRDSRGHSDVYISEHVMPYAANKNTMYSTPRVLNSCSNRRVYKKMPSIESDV

On to “Human tissue-type plasminogen activator (tPA, Actilyse) (enzyme)”, for which, in test [1], the NMDA-induced calcium influx (Fura-2 video imaging) in primary cultures of mouse cortical neurons; potentiation after 45 min with tPA 300 nM is 31% and the NMDA-induced calcium influx in primary cultures of mouse cortical neurons; tPA 300 nM together with the antibody of clone 6C9B6 10 μg/ml (% of potentiation) stood at 38. Further, in test [2], the NMDA-induced calcium influx (Fura-2 video imaging) in HEK-293 cells transfected with GluN1-1b WT and GluN2A; potentiation after 20 min with tPA 300 nM (% of potentiation) turned out to be 27.
On to “WT rat tissue-type plasminogen activator (tPA WT), expressed in HEK-293 cells (from UniProt P19637 33-559) (enzyme)”, for which the NMDA-induced calcium influx in HEK-293 cells transfected with GluN1-1b WT, GluN2A and tPA WT; change after 20 min with the antibody Glunomab 10 μg/ml (% of potentiation) in test [3] is -18.
